Experiments:
EOL-1 = assay: Flow cytometry binding to endogenous cell line EOL-1; format: cell-based, human; design: key to binding to EOL-1 by flow cytometry: (−): No binding; (+): Weak binding; (++): Moderate binding; (+++): Strong binding; conditions: primary antibody 1 ug/ml
Protocol: (§1) Staining for flow cytometry was performed in 1× cold PBS with 0.5% BSA. Primary antibodies (1 ug/ml) were incubated with live cells on ice for 30 minutes, after a brief wash, cells were incubated with Alexa Fluro® 488-conjugated anti-human IgG secondary antibody @1:1000 (709-546-149, Jackson ImmunoResearch). Acquisition of the data was performed on a MACSQuant® Flow Cytometers (Miltenyi Biotec) and analyzed with FlowJo software.
Over 1,000 hits were identified that bind strongly to CHO-human IL1RAP, but not parental CHO cells. 68 clones were selected for molecular cloning. Based on unique CDR3 sequences from the heavy chain variable domain, 35 antibodies from 13 families were confirmed by binding in IL1RAP positive cell lines EOL1 and Karpas 299 (see Table 8) by flow cytometry (MACSQuant® www.miltenybiotec.com).

MOLT3 = assay: Flow cytometry binding to endogenous cell line MOLT3; format: cell-based; design: key: (−): No binding; (+): Weak binding; (++): Moderate binding; (+++): Strong binding; conditions: primary antibody 1 ug/ml
Protocol: as §1

recombinant human IL1RAP = biological target: T1, recombinant human IL1RAP (Homo sapiens, UniProt Q9NPH3); assay: Binding competition binning on Octet; conditions: Protein A biosensors
T1 construct: MBP-IL1RAP(S21-T367)-; 8xHis (C); made in house; host or cells: CHO (ExpiCHO transient expression)
Protocol: Binding Competition binning: Binding competition among different antibodies was determined using a real-time, interferometry assay on an Octet Red™ instrument with Protein A-conjugated biosensors. To assess whether two antibodies competed for binding to a recombinant IL1RAP protein, the assay was performed as follows. Protein A biosensors were first submerged into wells containing 10 ug/mL of individual monoclonal antibodies for 5 minutes. Following the capture step, the biosensors were dipped briefly (15 seconds) into buffer and then any unoccupied sites on the biosensor were saturated by submerging them for 5 minutes into wells containing 100 ug/mL of an irrelevant monoclonal antibody. The Octet™ biosensors were then dipped briefly (15 seconds) in buffer before immersion for 1 minute into wells containing recombinant IL1RAP. The biosensors were dipped briefly (15 seconds) in buffer before immersion for 1 minute into wells containing a second recombinant antibody.
For the control case where the second antibody was the same as the first, there was no increase in signal, because there was no additional binding to the recombinant target.
For the control case where buffer was used instead of the first antibody, no recombinant target bound the non-quenching antibody on the biosensor and no second antibody bound the biosensor.
Selected antibodies were evaluated in pairs for their ability to simultaneously bind recombinant human IL1RAP. The analysis was performed by Octet™ loaded with Protein A Biosensors. A total of five different bins were determined as follows.

| Molecule | binding to EOL-1 by flow cytometry (EOL-1) | binding to MOLT3 by flow cytometry (MOLT3) | competition for binding, bin (2) (recombinant human IL1RAP) | competition for binding, bin (1) (recombinant human IL1RAP) |
| --- | --- | --- | --- | --- |
| 32C12_21A4: human anti-IL1RAP antibody, VH SEQ ID NO: 32, VL SEQ ID NO: 36 (antibody, V domains shown) VH: QVQLVESGGGVVQPGRSLRLSCAASGFTFRNYGIHWVRQAPGKGLEWVAVIWYDGSNKFYADSVKGRFTISRDNSKNTLYLQMNSLRVEDTAVYYCAREEGIAVAPFDYWGQGTLVTVSS VL: DIQMTQSPSSLSASVGDRVAITCRANQSIASYLNWYQQKPGKAPKLLIYGASSLQNGVPSRFSGSGSRTDFTLTISSLQPEDFATYYCQQSYSTEITFGQGTRLEIK | (+++) | (+) | competed with each other |  |
| 41G4_15B6: human anti-IL1RAP antibody, VH SEQ ID NO: 116, VL SEQ ID NO: 36 (antibody, V domains shown) VH: QVQLVESGGGVVQPGRSLRLSCAASGFTFRNYGMHWVRQAPGKGLEWVAVIWYDGSNKFYADSVKGRFTISRDNSKNTLYLQMNSLRVEDTAVYYCAREEGIAVAPFDYWGQGTLVTVSS VL: DIQMTQSPSSLSASVGDRVAITCRANQSIASYLNWYQQKPGKAPKLLIYGASSLQNGVPSRFSGSGSRTDFTLTISSLQPEDFATYYCQQSYSTEITFGQGTRLEIK | (+++) |  |  |  |
| 34H8_21B4: human anti-IL1RAP antibody, VH SEQ ID NO: 185, VL SEQ ID NO: 189 (antibody, V domains shown) VH: QVQLQESGPGLVKPSETLSLTCAVSGYSASGLYYWAWIRQPPGKGLEWIGNIYHSGRTYYNPSLESRVSISLDTSKHQVSLKLKSVTYADTAVYFCARDRFDGFDIWGQGTMVTVSS VL: EIVMTQSPATLSVSPGERATLSCRASQTINNILAWYQQKPGQAPRLLIYGASTRATGIPARFSGSGSGTEFTLTISSLQSEDFAVYYCQQYNNWPLTFGGGTKLEIK | (+++) | (+) |  |  |
| 31F9_21A1: human anti-IL1RAP antibody, VH SEQ ID NO: 118, VL SEQ ID NO: 120 (antibody, V domains shown) VH: QVQLVESGGGMVQPGRSLRLSCTASGFTFSSHGMHWVRQAPGKGLEWVAVIWFDGSNEYYVDSVKGRFTISRDNSKNTLYLQMNSLRAEDTAVYYCARENVYGSGWFFDYWGQGTLVTVSS VL: EIVMTQSPATLSVSPGERASLSCRASQSVGSNLAWYQQKPGQAPRLLIFGASTRATGIPARFSGSRSGTEFTLTISSLQSEDFALYYCQQYNNWPPWTFGQGTKVEIK | (+++) | (+) |  |  |
| 35D11_22A1: human anti-IL1RAP antibody, VH SEQ ID NO: 127, VL SEQ ID NO: 128 (antibody, V domains shown) VH: QLQLVESGGGVVQPGRSLRLSCAASGFTFSSYGMHWVRQAPGKGLEWVAVIWYDGSSEYYADSVKGRFTISRDNSKNTLFLQMNSLRADDTAVYYCARENVYGSGWFFDYWGQGTLVTVSS VL: EIVMTQSPATLSVSPGERASLSCRASQSVGSNLAWYQQKPGQAPRLLIFGASTRATGIPARFSGSRSGTEFTLTISSLQSEDFALYYCQQYDNWPPWTFGQGTKLEIK | (+++) | (+) |  |  |
| 33E9_21A6: human anti-IL1RAP antibody, VH SEQ ID NO: 125, VL SEQ ID NO: 126 (antibody, V domains shown) VH: QLQLVESGGGVVQFGRSLRLSCAASGFTFSSHGMHWVRQAPGKGLEWVAVIWYDGSSEYYADSVKGRFTISRDNSKNTLYLQMNSLRAEDTAVYYCARENVYGSGWFFDYWGQGTLVTVSS VL: EIVMTQSPATLSVSPGERASLSCRASQSVGSNLAWYQQKPGQAPRLLIFGASTRATGIPARFSGSRSGTEFTLTISSLQSEDFALYYCQQYNNWPPWTFGQGTKLEIK | (+++) | (+) |  |  |
| 32D4_21D6: human anti-IL1RAP antibody, VH SEQ ID NO: 121, VL SEQ ID NO: 122 (antibody, V domains shown) VH: QLQLVESGGGVVQPGRSLRLSCAASGFTFSSYGMHWVRQAPGKGLEWVAVIWYDGSSEYYADSVKGRFTISRDNSKNTLYLQMNSLRAEDTAVYYCARENVYGSGWFFDYWGQGTLVTVSS VL: EIVMTQSPATLSVSPGERASLSCRASQSVGSNLAWYQQKPGQAPRLLIFGASTRATGIPARFSGSRSGTEFTLTISSLQSEDFALYYCQQYNNWPPWTFGQGTKVEIK | (+++) | (+) |  |  |
| 32F9_21A5: human anti-IL1RAP antibody, VH SEQ ID NO: 123, VL SEQ ID NO: 124 (antibody, V domains shown) VH: QLQLVESGGGVVQPGRSLRLSCAASGFTFSSHGMHWVRQAPGKGLEWVAVIWYDGSSEYYADSVKGRFTISRDNSKNTLYLQMNSLRAEDTAVYYCARENVYGSGWFFDYWGQGSLVTVSS VL: EIVMTQSPATLSVSPGERASLSCRASQSVGSNLAWYQQKPGQAPRLLIFGASTRATGIPARFSGSRSGTEFTLTISSLQSEDFALYYCQQYNNWPPWTFGQGTKLEIK | (+++) | (+) |  |  |
| 38E10_21C3: human anti-IL1RAP antibody, VH SEQ ID NO: 74, VL SEQ ID NO: 78 (antibody, V domains shown) VH: EVQLLESGGGLVQPGGSLRLSCAASGFTFSNYAMTWVRQAPGKGLEWVSSISISRAGTYYADSVKGRFTISRDNSKNTLNLQMNSLRAEDTAEYYCAREYYYGMDVWGQGTTVTVSS VL: EIVLTQSPATLSLSPGERATLSCRASQSVSSYLAWYQQKPGQTPRLLIYDASNRATGIPARFSGSGSGTDFTLTISSLETEDFAVYYCQQLINWPLTFGGGTKLEIK | (+++) | (+) |  | competed with each other |
| 10C8_15A1: human anti-IL1RAP antibody, VH SEQ ID NO: 9, VL SEQ ID NO: 13 (antibody, V domains shown) VH: QVQLVESGGGVVQPGRSLRISCAASGFTFRSYGMHWVRQAPGKGLEWVAIIWHDESYKYYVDSVKGRFTISRDNSKNTLYLQMNSLRAEDTAVYYCARGDYYGSGSYYDAFDIWGQGTMVTVSS VL: DIQMTQSPSSLSASVGDRVIITCRASQGISNYLAWFQQKPGKCPNLLIYAASTLRSGVPSRFSGSGSGTDFTLTISSLQPEDVATYYCQKYNSAPYTFGQGTKVEIK | (+++) | (−) | competed with each other |  |
